The source of these data is the Immune Epitope Database (IEDB).

One test deals with HLA-B*35:01. The experiment in a line: IEDB peptide-MHC binding, purified MHC/competitive/radioactivity; filed as Kd, often an IC50 or EC50 that approximates it; ≥ and ≤ were set here for values at or beyond the usual limits of such assays.
Test [1] concerns the target HLA-A*02:01. Description: IEDB peptide-MHC binding, purified MHC/competitive/fluorescence; filed as Kd, often an IC50 or EC50 that approximates it; ≥ and ≤ were set here for values at or beyond the usual limits of such assays.
The target of test [2] is HLA-B*15:01. The description is as above.
Another test has as its target HLA-A*11:01. The experiment in a line: IEDB peptide-MHC binding, purified MHC/direct/fluorescence; filed as Kd, often an IC50 or EC50 that approximates it; ≥ and ≤ were set here for values at or beyond the usual limits of such assays.
Another test concerns the target HLA-A*31:01. The description is as above.
In another test the target is HLA-A*26:01. The test is described as above.
For another test, the target named is HLA-B*40:01. The description is as above.
A further test deals with HLA-A*03:01. The test is described as above.
For another test, the target named is HLA-A*01:01. The test is described as above.
For test [3], the target named is HLA-A*02:01. The test is described as above.
The next test addresses HLA-B*08:01. The description is as above.
In test [4] the target is HLA-B*15:01. The description is as above.
The next test addresses HLA-B*58:01. The test is described as above.
The target in a further test is HLA-B*44:02. The description is as above.
The target in another test is HLA-A*69:01. Described as above.
Another test has as its target HLA-B*27:05. Described as above.
The target in a further test is HLA-B*53:01. The experiment in a line: IEDB peptide-MHC binding, purified MHC/competitive/radioactivity; filed as Kd, often an IC50 or EC50 that approximates it; ≥ and ≤ were set here for values at or beyond the usual limits of such assays. The conditions noted are these: source organism: Dengue virus 1 Brazil/97-11/1997.
Test [5] addresses HLA-B*15:01. The test is described as above. The conditions noted are these: source organism: Dengue virus 1 Brazil/97-11/1997.
In the next test the target is HLA-A*02:03. The test is described as above.
The target of another test is HLA-A*68:02. The description is as above.
The target of another test is HLA-A*02:06. The test is described as above.
For the next test, the target named is HLA-A*02:02. Described as above.
For a further test, the target named is HLA-B*51:01. Description: IEDB peptide-MHC binding, purified MHC/competitive/fluorescence; filed as Kd, often an IC50 or EC50 that approximates it; ≥ and ≤ were set here for values at or beyond the usual limits of such assays. To be noted: source organism: Listeria monocytogenes FSL J1-194.
The target of another test is HLA-A*24:03. The experiment in a line: IEDB peptide-MHC binding, purified MHC/direct/fluorescence; filed as Kd, often an IC50 or EC50 that approximates it; ≥ and ≤ were set here for values at or beyond the usual limits of such assays.
The target of another test is HLA-B*07:02. Described as above.
In the next test the target is HLA-A*24:02. Description: IEDB peptide-MHC binding, purified MHC/competitive/radioactivity; filed as Kd, often an IC50 or EC50 that approximates it; ≥ and ≤ were set here for values at or beyond the usual limits of such assays.
For the next test, the target named is HLA-A*29:02. The description is as above. The conditions noted are these: source organism: Mammarenavirus machupoense.
The next test deals with HLA-A*23:01. The test is described as above. To be noted: source organism: Mammarenavirus machupoense.
A further test deals with HLA-A*30:01. The description is as above. To be noted: source organism: Dengue virus 3 Martinique/1243/1999.
A further test has as its target HLA-B*39:01. Description: IEDB peptide-MHC binding, purified MHC/competitive/fluorescence; filed as Kd, often an IC50 or EC50 that approximates it; ≥ and ≤ were set here for values at or beyond the usual limits of such assays. To be noted: source organism: Vibrio parahaemolyticus AQ3810.
The target of another test is HLA-B*57:01. Description: IEDB peptide-MHC binding, purified MHC/direct/fluorescence; filed as Kd, often an IC50 or EC50 that approximates it; ≥ and ≤ were set here for values at or beyond the usual limits of such assays. The conditions noted are these: source organism: Campylobacter jejuni.
The mark [6] stands for this setting: source organism: Dengue virus 1 Brazil/97-11/1997.
Setting [7] is: source organism: Dengue virus 4 Philippines/H241/1956.
[8] abbreviates: source organism: Escherichia coli O139:H28 str. E24377A.
[9] abbreviates: source organism: Cryptosporidium parvum.
Where [10] appears, read: source organism: Lassa virus Josiah.
Setting [11] is: source organism: Vibrio vulnificus.
The mark [12] stands for this setting: source organism: Giardia lamblia ATCC 50803.
Where [13] appears, read: source organism: Dengue virus 2 Jamaica/1409/1983.
[14] abbreviates: source organism: Shigella dysenteriae.
The mark [15] stands for this setting: source organism: Dengue virus 1 Singapore/S275/1990.
Setting [16] is: source organism: Rickettsia sibirica.

With MKLVMAFIAF, the equilibrium dissociation constant (Kd) with HLA-B*35:01 (setting [6]) came to 1830 nM.
In the case of IANQAAVLM, in the test with HLA-B*35:01 (setting [7]), the Kd came to 75.1 nM.
As for KMSGKTPAV, the Kd is 1.7 nM in the test with HLA-A*02:01 [1] (setting [8]) and 1160 nM with HLA-B*15:01 [2] (setting [8]).
Take RLLRMNNEN: the dissociation constant Kd with HLA-A*11:01 (setting [9]), with HLA-A*31:01 (setting [9]), with HLA-A*26:01 (setting [9]), with HLA-B*40:01 (setting [9]), with HLA-A*03:01 (setting [9]) and in the test with HLA-A*01:01 (setting [9]) was at least 20000 nM throughout. In addition, the Kd with HLA-A*02:01 [3] (setting [9]), with HLA-B*08:01 (setting [9]), with HLA-B*15:01 [4] (setting [9]), with HLA-B*58:01 (setting [9]), with HLA-B*44:02 (setting [9]) and in the test with HLA-A*69:01 (setting [9]) was at least 20000 nM each time. For the same sequence, the Kd with HLA-B*27:05 (setting [9]) is at least 20000 nM.
For the sequence IAMTDTTPF, the Kd came out at 1.18 nM in the test with HLA-B*35:01 (setting [6]), 172 nM with HLA-B*53:01 and 4.25 nM with HLA-B*15:01 [5].
In the case of DLENRCQSL, the Kd in the test with HLA-A*02:03 (source organism: Homo sapiens) is at least 32800 nM; with HLA-A*68:02 (source organism: Homo sapiens), at least 107000 nM; in the test with HLA-A*02:06 (source organism: Homo sapiens) it was at least 78700 nM; with HLA-A*02:02 (source organism: Homo sapiens) it was 12400 nM.
As for LKYAPFFQV, in the test with HLA-B*51:01, the Kd is at least 20000 nM.
As to RLLGTFTWTL, the Kd is 106 nM in the test with HLA-A*02:03 (setting [10]), at least 5000 nM in the test with HLA-A*68:02 (setting [10]), 7.55 nM with HLA-A*02:06 (setting [10]) and 117 nM in the test with HLA-A*02:02 (setting [10]).
GYQHKTLAI yielded a Kd with HLA-A*24:03 (setting [11]) of 6.5 nM.
For the sequence EMKLRQKQL, the Kd with HLA-B*08:01 (setting [12]) was 38 nM; with HLA-A*02:01 [1] (setting [12]) it was at least 20000 nM.
With LSMGLIAIAV, the results for the Kd in the test with HLA-A*68:02 (setting [7]) and in the test with HLA-A*02:06 (setting [7]) were 588 nM and 5.23 nM, respectively.
In the case of GSEVPGFCH, the Kd in the test with HLA-A*11:01 (setting [11]), with HLA-A*31:01 (setting [11]), in the test with HLA-B*07:02 (setting [11]), in the test with HLA-A*26:01 (setting [11]), with HLA-B*40:01 (setting [11]) and with HLA-A*03:01 (setting [11]) was at least 20000 nM in each case. Moreover, the Kd with HLA-A*01:01 (setting [11]), in the test with HLA-A*02:01 [3] (setting [11]), in the test with HLA-B*08:01 (setting [11]), with HLA-B*15:01 [4] (setting [11]), with HLA-B*58:01 (setting [11]) and with HLA-B*44:02 (setting [11]) was at least 20000 nM each time. For the same sequence, the equilibrium dissociation constant (Kd) with HLA-A*69:01 (setting [11]), with HLA-A*24:03 (setting [11]) and with HLA-B*27:05 (setting [11]) was at least 20000 nM throughout.
As for LAYTIGTTHF, the equilibrium dissociation constant (Kd) came out at 230 nM with HLA-A*24:02 (setting [13]) and 1410 nM with HLA-B*35:01 (setting [13]).
For the sequence MAIGIVSIL, the Kd with HLA-A*68:02 (setting [6]) amounted to 2.39 nM.
For the sequence ESLETLMLV, the Kd with HLA-A*68:02 (setting [7]) was 162 nM.
Turning to PYENLLYKL, the Kd in the test with HLA-A*29:02 came to 2340 nM; in the test with HLA-A*24:02 (source organism: Mammarenavirus machupoense) it was 521 nM; in the test with HLA-A*23:01, 81.5 nM; with HLA-A*24:03 (source organism: Mammarenavirus paranaense) it was 785 nM.
For the sequence GYCLTRWML, in the test with HLA-A*24:03 (source organism: Mammarenavirus lassaense), the dissociation constant (Kd) turned out to be 39.5 nM.
Turning to KLKNKHEAMI, the equilibrium dissociation constant (Kd) with HLA-A*68:02 (source organism: Homo sapiens) is 10300 nM; in the test with HLA-A*02:06 (source organism: Homo sapiens), at least 50300 nM.
Take MVHQIFGSA: the equilibrium dissociation constant (Kd) worked out at 16.7 nM in the test with HLA-A*68:02 (source organism: Dengue virus 3 Martinique/1243/1999) and 29.6 nM in the test with HLA-A*30:01.
In the case of YPKTKLTDWD, the dissociation constant (Kd) with HLA-B*35:01 (setting [7]) amounted to 1310 nM.
With AEMRETHWL, the Kd with HLA-A*11:01 (setting [14]) is at least 20000 nM; in the test with HLA-A*31:01 (setting [14]), at least 20000 nM; with HLA-B*07:02 (setting [14]) it was at least 20000 nM; in the test with HLA-A*26:01 (setting [14]) it was at least 20000 nM; with HLA-B*40:01 (source organism: Escherichia coli) it was 6.21 nM; with HLA-A*03:01 (setting [14]), at least 20000 nM. In addition, the Kd with HLA-A*01:01 (setting [14]) is at least 20000 nM; with HLA-A*02:01 [3] (setting [14]) it was at least 20000 nM; with HLA-B*08:01 (setting [14]), at least 20000 nM; with HLA-B*58:01 (setting [14]) it was at least 20000 nM; with HLA-B*44:02 (setting [14]) it was 2000 nM; with HLA-A*69:01 (setting [14]), at least 20000 nM. The same sequence had a Kd with HLA-B*27:05 (setting [14]) of at least 20000 nM.
As to ILWILDRLF, the Kd in the test with HLA-B*15:01 [2] (source organism: Influenza A virus (A/Memphis/1/1978(H1N1))) is at least 20000 nM.
Consider ELVDTTEMY, for which the Kd stood at 207 nM with HLA-A*26:01 (source organism: Mycobacterium tuberculosis variant bovis) and 324 nM with HLA-B*15:01 [2] (source organism: Mycobacterium tuberculosis H37Rv).
Consider MTGPLVAGGL, for which the Kd in the test with HLA-A*68:02 (setting [13]) worked out at 21.6 nM.
With THPERTLRL, the Kd with HLA-B*39:01 came out at 2500 nM.
For the sequence ITVSGLYPL, in the test with HLA-A*68:02 (setting [7]), the Kd came out at 12.3 nM.
Take LPGADTQGSN: in the test with HLA-B*35:01 (setting [13]), the Kd came to 2840 nM.
In the case of SSVLLWMASV, the Kd with HLA-A*68:02 (setting [15]) was 45.2 nM.
Still for that read-out and setting: the value for MAVGIVSILL was 5.58 nM.
On to KSNKIRGRM, for which the Kd with HLA-B*57:01 worked out at 988 nM; with HLA-B*58:01 (source organism: Campylobacter jejuni), 192 nM.
For the sequence ASDRISGIL, the Kd with HLA-A*11:01 (setting [16]) is at least 20000 nM; with HLA-A*31:01 (setting [16]) it was at least 20000 nM; with HLA-B*07:02 (setting [16]), 14600 nM; with HLA-A*26:01 (setting [16]), at least 20000 nM; in the test with HLA-B*40:01 (setting [16]), 1460 nM; with HLA-A*03:01 (setting [16]), at least 20000 nM. Further, the Kd was 6550 nM with HLA-A*01:01 (setting [16]); at least 20000 nM with HLA-A*02:01 [3] (setting [16]); at least 20000 nM with HLA-B*08:01 (setting [16]); 5160 nM in the test with HLA-B*15:01 [4] (setting [16]); at least 20000 nM with HLA-B*58:01 (setting [16]); at least 20000 nM with HLA-B*44:02 (setting [16]). The Kd with HLA-A*69:01 (setting [16]), with HLA-A*24:03 (setting [16]) and with HLA-B*27:05 (setting [16]) was at least 20000 nM in each case.
